Measurements published in publication PMC7888926.
pKd: −log10 of the molar value.

Experiments:
GST-His6-2×HBD = GST-His6-2×HBD (UniProt O60930); test: BLI; settings: EMSA: 30 nM probe, 20 mM Hepes pH 7.0, 100 mM NaCl, 5% glycerol, 10 mM DTT, 0.5 mM EDTA, 5 ug/ml salmon sperm DNA, 25°C 30 min; BLI: 20 mM Hepes-NaOH pH 7.5 …
GST-His6-HBD = molecular target: T1, GST-His6-HBD (UniProt O60930); test: BLI; settings: EMSA: 30 nM probe, 20 mM Hepes pH 7.0, 100 mM NaCl, 5% glycerol, 10 mM DTT, 0.5 mM EDTA, 5 ug/ml salmon sperm DNA, 25°C 30 min; BLI: 20 mM Hepes-NaOH pH 7.5 …
T1 sequence (O60930 whole entry, looked up): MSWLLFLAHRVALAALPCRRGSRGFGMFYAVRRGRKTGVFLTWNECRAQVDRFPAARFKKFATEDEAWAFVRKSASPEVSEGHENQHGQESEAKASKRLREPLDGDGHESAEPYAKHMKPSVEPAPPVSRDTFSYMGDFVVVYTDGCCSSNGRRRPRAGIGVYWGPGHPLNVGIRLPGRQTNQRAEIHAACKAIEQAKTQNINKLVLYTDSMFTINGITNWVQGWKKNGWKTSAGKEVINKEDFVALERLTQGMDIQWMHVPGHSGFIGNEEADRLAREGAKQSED

AGCGTGCCGTGCAACAACATTACAC / GUGUAAUGUUGUUGCACGGCACGCU [biotin DNA-RNA hybrid 25-mer (BLI)]
pKd (GST-His6-2×HBD): 7.98
pKd (GST-His6-HBD): 7.78
